Test results: article PMC11467669 (The Journal of Biological Chemistry, 2024)

B1: full-length USP8 (a.a. 7-1110), non-phosphorylated (enzyme)
chain: VPKELYLSSSLKDLNKKTEVKPEKISTKSYVHSALKIFKTAEECRLDRDEERAYVLYMKYVTVYNLIKKRPDFKQQQDYFHSILGPGNIKKAVEEAERLSESLKLRYEEAEVRKKLEEKDRQEEAQRLQQKRQETGREDGGTLAKGSLENVLDSKDKTQKSNGEKNEKCETKEKGAITAKELYTMMTDKNISLIIMDARRMQDYQDSCILHSLSVPEEAISPGVTASWIEAHLPDDSKDTWKKRGNVEYVVLLDWFSSAKDLQIGTTLRSLKDALFKWESKTVLRNEPLVLEGGYENWLLCYPQYTTNAKVTPPPRRQNEEVSISLDFTYPSLEESIPSKPAAQTPPASIEVDENIELISGQNERMGPLNISTPVEPVAASKSDVSPIIQPVPSIKNVPQIDRTKKPAVKLPEEHRIKSESTNHEQQSPQSGKVIPDRSTKPVVFSPTLMLTDEEKARIHAETALLMEKNKQEKELRERQQEEQKEKLRKEEQEQKAKKKQEAEENEITEKQQKAKEEMEKKESEQAKKEDKETSAKRGKEITGVKRQSKSEHETSDAKKSVEDRGKRCPTPEIQKKSTGDVPHTSVTGDSGSGKPFKIKGQPESGILRTGTFREDTDDTERNKAQREPLTRARSEEMGRIVPGLPSGWAKFLDPITGTFRYYHSPTNTVHMYPPEMAPSSAPPSTPPTHKAKPQIPAERDREPSKLKRSYSSPDITQAIQEEEKRKPTVTPTVNRENKPTCYPKAEISRLSASQIRNLNPVFGGSGPALTGLRNLGNTCYMNSILQCLCNAPHLADYFNRNCYQDDINRSNLLGHKGEVAEEFGIIMKALWTGQYRYISPKDFKITIGKINDQFAGYSQQDSQELLLFLMDGLHEDLNKADNRKRYKEENNDHLDDFKAAEHAWQKHKQLNESIIVALFQGQFKSTVQCLTCHKKSRTFEAFMYLSLPLASTSKCTLQDCLRLFSKEEKLTDNNRFYCSHCRARRDSLKKIEIWKLPPVLLVHLKRFSYDGRWKQKLQTSVDFPLENLDLSQYVIGPKNNLKKYNLFSVSNHYGGLDGGHYTAYCKNAARQRWFKFDDHEVSDISVSSVKSSAAYILFYTSLG
B2: USP8 ΔWW (WW domain-deleted mutant of FL USP8, a.a. 7-1110) (enzyme)
chain: VPKELYLSSSLKDLNKKTEVKPEKISTKSYVHSALKIFKTAEECRLDRDEERAYVLYMKYVTVYNLIKKRPDFKQQQDYFHSILGPGNIKKAVEEAERLSESLKLRYEEAEVRKKLEEKDRQEEAQRLQQKRQETGREDGGTLAKGSLENVLDSKDKTQKSNGEKNEKCETKEKGAITAKELYTMMTDKNISLIIMDARRMQDYQDSCILHSLSVPEEAISPGVTASWIEAHLPDDSKDTWKKRGNVEYVVLLDWFSSAKDLQIGTTLRSLKDALFKWESKTVLRNEPLVLEGGYENWLLCYPQYTTNAKVTPPPRRQNEEVSISLDFTYPSLEESIPSKPAAQTPPASIEVDENIELISGQNERMGPLNISTPVEPVAASKSDVSPIIQPVPSIKNVPQIDRTKKPAVKLPEEHRIKSESTNHEQQSPQSGKVIPDRSTKPVVFSPTLMLTDEEKARIHAETALLMEKNKQEKELRERQQEEQKEKLRKEEQEQKAKKKQEAEENEITEKQQKAKEEMEKKESEQAKKEDKETSAKRGKEITGVKRQSKSEHETSDAKKSVEDRGKRCPTPEIQKKSTGDVPHTSVTGDSGSGKPFKIKGQPESGILRTGTFREDTDDTERNKAQREPLTRARSEEMSSAPPSTPPTHKAKPQIPAERDREPSKLKRSYSSPDITQAIQEEEKRKPTVTPTVNRENKPTCYPKAEISRLSASQIRNLNPVFGGSGPALTGLRNLGNTCYMNSILQCLCNAPHLADYFNRNCYQDDINRSNLLGHKGEVAEEFGIIMKALWTGQYRYISPKDFKITIGKINDQFAGYSQQDSQELLLFLMDGLHEDLNKADNRKRYKEENNDHLDDFKAAEHAWQKHKQLNESIIVALFQGQFKSTVQCLTCHKKSRTFEAFMYLSLPLASTSKCTLQDCLRLFSKEEKLTDNNRFYCSHCRARRDSLKKIEIWKLPPVLLVHLKRFSYDGRWKQKLQTSVDFPLENLDLSQYVIGPKNNLKKYNLFSVSNHYGGLDGGHYTAYCKNAARQRWFKFDDHEVSDISVSSVKSSAAYILFYTSLG
B3: USP8 Δ686–757 (FL USP8, a.a. 7-1110, entire WW-CD linker deleted) (enzyme)
chain: VPKELYLSSSLKDLNKKTEVKPEKISTKSYVHSALKIFKTAEECRLDRDEERAYVLYMKYVTVYNLIKKRPDFKQQQDYFHSILGPGNIKKAVEEAERLSESLKLRYEEAEVRKKLEEKDRQEEAQRLQQKRQETGREDGGTLAKGSLENVLDSKDKTQKSNGEKNEKCETKEKGAITAKELYTMMTDKNISLIIMDARRMQDYQDSCILHSLSVPEEAISPGVTASWIEAHLPDDSKDTWKKRGNVEYVVLLDWFSSAKDLQIGTTLRSLKDALFKWESKTVLRNEPLVLEGGYENWLLCYPQYTTNAKVTPPPRRQNEEVSISLDFTYPSLEESIPSKPAAQTPPASIEVDENIELISGQNERMGPLNISTPVEPVAASKSDVSPIIQPVPSIKNVPQIDRTKKPAVKLPEEHRIKSESTNHEQQSPQSGKVIPDRSTKPVVFSPTLMLTDEEKARIHAETALLMEKNKQEKELRERQQEEQKEKLRKEEQEQKAKKKQEAEENEITEKQQKAKEEMEKKESEQAKKEDKETSAKRGKEITGVKRQSKSEHETSDAKKSVEDRGKRCPTPEIQKKSTGDVPHTSVTGDSGSGKPFKIKGQPESGILRTGTFREDTDDTERNKAQREPLTRARSEEMGRIVPGLPSGWAKFLDPITGTFRYYHSPTNTVHMYPPEMAPSASQIRNLNPVFGGSGPALTGLRNLGNTCYMNSILQCLCNAPHLADYFNRNCYQDDINRSNLLGHKGEVAEEFGIIMKALWTGQYRYISPKDFKITIGKINDQFAGYSQQDSQELLLFLMDGLHEDLNKADNRKRYKEENNDHLDDFKAAEHAWQKHKQLNESIIVALFQGQFKSTVQCLTCHKKSRTFEAFMYLSLPLASTSKCTLQDCLRLFSKEEKLTDNNRFYCSHCRARRDSLKKIEIWKLPPVLLVHLKRFSYDGRWKQKLQTSVDFPLENLDLSQYVIGPKNNLKKYNLFSVSNHYGGLDGGHYTAYCKNAARQRWFKFDDHEVSDISVSSVKSSAAYILFYTSLG
B4: 14-3-3γ (natural protein, UniProt P61981 1-247, looked up)
chain: MVDREQLVQKARLAEQAERYDDMAAAMKNVTELNEPLSNEERNLLSVAYKNVVGARRSSWRVISSIEQKTSADGNEKKIEMVRAYREKIEKELEAVCQDVLSLLDNYLIKNCSETQYESKVFYLKMKGDYYRYLAEVATGEKRATVVESSEKAYSEAHEISKEHMQPTHPIRLGLALNYSVFYYEIQNAPEQACHLAKTAFDDAIAELDTLNEDSYKDSTLIMQLLRDNLTLWTSDQQDDDGGEGNN

Legend:
[1] = target: mono-ubiquitin with an N-terminal fluorescein moiety (UniProt P0CG47 1-76, fluorescein on the N-terminus); assay: fluorescence polarisation
[2] = target: the molecule itself; assay: SEC-MALLS

| Binder | Kd [1] [nM] | stoichiometry N [2] |
| --- | --- | --- |
| B1 | 1480 | – |
| B2 | 290 | – |
| B3 | 367 | – |
| B4 | – | 2 |
